Results taken from paper PMC6858872 (Nature structural & molecular biology, 2019).
Several values for one entry are separate records, joined by “and”; a condition that tells them apart may be missing. Equal values may be shown once. Read-outs that look alike come from different tables or passages of the source.

Legend:
YFP-BiP [1] = target: T1, YFP-BiP (human, UniProt P11021 28-654); experiment: FRET or BRET
YFP-BiP [2] = target: T1, YFP-BiP; experiment: FRET or BRET; remark: listed apart in the source
YFP-BiP [3] = target: T1, YFP-BiP; experiment: FRET or BRET; remark: listed apart in the source
SEC = target: the molecule itself; experiment: SEC

Binder	Ki of the high concentration phase (Ki^High) (YFP-BiP [1])	Ki of the high concentration phase (Ki^High) (YFP-BiP [2])	Ki of the high concentration phase (Ki^High) (YFP-BiP [3])	stoichiometry N (SEC)
CH1 (immunoglobulin fragment, inherently misfolded without CL) (domain or fragment) not shown	4.3 ± 0.4 µM	0.2 ± 0.01 µM	5.2 ± 0.6 µM	
IRE1 LD (human IRE1 luminal domain, 32-440) (domain or fragment) LLFVSTLDGSLHAVSKRTGSIKWTLKEDPVLQVPTHVEEPAFLPDPNDGSLYTLGSKNNEGLTKLPFTIPELVQASPCRSSDGILYMGKKQDIWYVIDLLTGEKQQTLSSAFADSLCPSTSLLYLGRTEYTITMYDTKTRELRWNATYFDYAASLPEDDVDYKMSHFVSNGDGLVVTVDSESGDVLWIQNYASPVVAFYVWQREGLRKVMHINVAVETLRYLTFMSGEVGRITKWKYPFPKETEAKSKLTPTLYVGKYSTSLYASPSMVHEGVAVVPRGSTLPLLEGPQTDGVTIGDKGECVITPSTDVKFDPGLKSKNKLNYLRNYWLLIGHHETPLSASTKMLERFPNNLPKHRENVIPADSEKKSFEEVINLVDQTSENAPTTVSRDVEEKPAHAPARPEAPVDSM				2 and 4
